Here are results for 1 substance from patent US20240173425A1, “HUMAN CD33 ANTIBODIES AND GLUCOCORTICOID CONJUGATES” (Eli Lilly and Company, priority 2022, published 2024).

The experiment concerns the target human CD33 on the cell surface of human monocytes / myeloid cells (human) (UniProt P20138). Nature of the experiment: cell-based or functional assay.

Sequence of human CD33 on the cell surface of human monocytes / myeloid cells (human) (P20138 18-364 limits assumed): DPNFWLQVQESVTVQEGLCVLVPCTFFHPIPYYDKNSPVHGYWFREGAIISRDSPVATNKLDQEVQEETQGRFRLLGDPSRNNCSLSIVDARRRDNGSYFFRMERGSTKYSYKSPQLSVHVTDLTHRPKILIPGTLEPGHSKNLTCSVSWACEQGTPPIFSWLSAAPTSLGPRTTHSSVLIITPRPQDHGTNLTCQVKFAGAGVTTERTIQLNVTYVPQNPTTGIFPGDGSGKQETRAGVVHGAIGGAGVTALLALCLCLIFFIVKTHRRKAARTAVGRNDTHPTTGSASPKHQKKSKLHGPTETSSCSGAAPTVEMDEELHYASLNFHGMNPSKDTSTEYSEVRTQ

Take Gemtuzumab (hIgG4PAA) (antibody): the % Internalization was 50.5%.
